{"source": "paper PMC6497169", "about": "(Nature microbiology, 2017)", "binders": {"B1": {"name": "DotL(656–783) (domain or fragment)", "chain": "GQNEPEPVEDIVEEEVEGALTIFSKLRIDPNAPPILVADKEVFSEPLLPINETRNQMITIERLAGAKDKYAGTVANELIKDFQIATSYPPEERDVIDVQELTGIIRDLSAKISAEREKANKKAAEELT"}, "B2": {"name": "DotL(590–659) (domain or fragment)", "chain": "VEPPPDDYLMKLQKQLASFQSILESGDLSINKAVENEEITLISKALKESTIVEPIERGVAALIAFHGQNE"}}, "key": {"IcmW": {"target": "T1, IcmW (L. pneumophila (Philadelphia-1), UniProt Q5ZS31 1-151)", "T1 sequence": "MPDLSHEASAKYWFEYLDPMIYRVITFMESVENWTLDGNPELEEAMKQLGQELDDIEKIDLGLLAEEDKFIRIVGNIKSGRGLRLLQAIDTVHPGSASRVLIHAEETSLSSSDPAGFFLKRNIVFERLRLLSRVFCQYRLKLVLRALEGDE", "assay": "crystal structure"}, "DotN(7–214)": {"target": "T2, DotN(7–214) (L. pneumophila (Philadelphia-1), UniProt Q5ZYB7 7-214)", "T2 sequence": "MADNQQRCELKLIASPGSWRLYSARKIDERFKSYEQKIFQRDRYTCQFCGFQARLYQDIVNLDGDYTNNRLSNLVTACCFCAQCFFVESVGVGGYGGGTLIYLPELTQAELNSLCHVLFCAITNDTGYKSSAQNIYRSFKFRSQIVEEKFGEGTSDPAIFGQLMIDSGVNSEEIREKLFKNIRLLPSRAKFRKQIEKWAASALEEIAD", "assay": "crystal structure"}}}
{"binder": "B1", "values": [{"measurement": "binding result", "setting": "IcmW", "value": "binds"}]}
{"binder": "B2", "values": [{"measurement": "binding result", "setting": "DotN(7–214)", "value": "binds"}]}
